T1: Boc-Glu(OBzl)-Ala-Arg-MCA
T1 chain: EAR

T2: Gly-Asp-Asp-Asp-Asp-Lys-β-naphthylamide
T2 chain: GDDDDK

T3: Pro-Phe-Arg-MCA
T3 chain: PFR

T4: Z-Phe-Arg-MCA
T4 chain: FR

T5: recombinant fusion protein of human kallikrein 8 (hK8), O60259
T5 sequence (O60259 whole entry, looked up): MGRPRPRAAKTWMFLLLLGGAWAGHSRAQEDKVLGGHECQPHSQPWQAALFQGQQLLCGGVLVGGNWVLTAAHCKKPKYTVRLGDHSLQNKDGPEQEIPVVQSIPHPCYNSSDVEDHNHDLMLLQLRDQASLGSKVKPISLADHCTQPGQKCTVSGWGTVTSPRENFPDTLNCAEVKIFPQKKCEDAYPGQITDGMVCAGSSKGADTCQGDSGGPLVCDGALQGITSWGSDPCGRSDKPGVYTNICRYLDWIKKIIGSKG

T6: human fibrinogen, P02671
T6 chain 1: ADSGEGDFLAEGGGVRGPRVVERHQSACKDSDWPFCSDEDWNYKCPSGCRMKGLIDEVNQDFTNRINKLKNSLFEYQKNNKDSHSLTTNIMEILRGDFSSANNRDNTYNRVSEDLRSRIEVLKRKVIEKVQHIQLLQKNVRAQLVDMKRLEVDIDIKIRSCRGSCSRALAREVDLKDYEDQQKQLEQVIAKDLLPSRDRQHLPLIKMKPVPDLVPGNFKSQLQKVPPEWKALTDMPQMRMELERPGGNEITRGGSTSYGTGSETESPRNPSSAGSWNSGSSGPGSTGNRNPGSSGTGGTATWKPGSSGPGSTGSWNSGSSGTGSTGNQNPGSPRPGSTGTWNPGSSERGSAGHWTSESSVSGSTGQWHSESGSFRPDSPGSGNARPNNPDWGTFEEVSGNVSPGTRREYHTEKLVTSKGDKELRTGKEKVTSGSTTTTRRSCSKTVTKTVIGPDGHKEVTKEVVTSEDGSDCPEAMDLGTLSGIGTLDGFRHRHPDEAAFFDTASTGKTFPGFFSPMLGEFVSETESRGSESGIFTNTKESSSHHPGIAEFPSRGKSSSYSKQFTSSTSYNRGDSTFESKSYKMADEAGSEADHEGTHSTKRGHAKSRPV
T6 chain 2: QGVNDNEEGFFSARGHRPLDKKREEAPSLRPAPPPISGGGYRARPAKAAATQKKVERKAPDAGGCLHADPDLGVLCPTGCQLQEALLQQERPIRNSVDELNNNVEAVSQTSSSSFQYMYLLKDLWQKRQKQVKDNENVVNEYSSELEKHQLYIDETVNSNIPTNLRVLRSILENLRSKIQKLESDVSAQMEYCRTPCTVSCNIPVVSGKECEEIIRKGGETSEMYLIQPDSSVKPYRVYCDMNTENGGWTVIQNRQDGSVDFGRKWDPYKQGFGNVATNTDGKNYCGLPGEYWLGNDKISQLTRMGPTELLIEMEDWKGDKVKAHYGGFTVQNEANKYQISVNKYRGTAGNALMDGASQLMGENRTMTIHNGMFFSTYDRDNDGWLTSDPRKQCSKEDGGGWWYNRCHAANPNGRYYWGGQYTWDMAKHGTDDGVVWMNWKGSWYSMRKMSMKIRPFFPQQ
T6 chain 3: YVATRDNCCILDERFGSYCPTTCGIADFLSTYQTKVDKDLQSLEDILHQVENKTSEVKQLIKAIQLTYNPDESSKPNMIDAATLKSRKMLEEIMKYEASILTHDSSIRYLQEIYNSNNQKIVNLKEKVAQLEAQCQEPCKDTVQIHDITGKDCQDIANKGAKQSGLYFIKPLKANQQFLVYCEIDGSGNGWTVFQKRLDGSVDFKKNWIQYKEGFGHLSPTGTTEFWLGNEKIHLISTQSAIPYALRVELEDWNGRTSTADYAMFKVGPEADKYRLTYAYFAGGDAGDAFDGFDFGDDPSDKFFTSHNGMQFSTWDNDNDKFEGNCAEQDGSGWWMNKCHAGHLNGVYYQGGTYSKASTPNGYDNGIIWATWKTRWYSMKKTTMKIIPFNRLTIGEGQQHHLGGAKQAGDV

T7: human high-molecular-weight (HMW) kininogen, P01042
T7 chain: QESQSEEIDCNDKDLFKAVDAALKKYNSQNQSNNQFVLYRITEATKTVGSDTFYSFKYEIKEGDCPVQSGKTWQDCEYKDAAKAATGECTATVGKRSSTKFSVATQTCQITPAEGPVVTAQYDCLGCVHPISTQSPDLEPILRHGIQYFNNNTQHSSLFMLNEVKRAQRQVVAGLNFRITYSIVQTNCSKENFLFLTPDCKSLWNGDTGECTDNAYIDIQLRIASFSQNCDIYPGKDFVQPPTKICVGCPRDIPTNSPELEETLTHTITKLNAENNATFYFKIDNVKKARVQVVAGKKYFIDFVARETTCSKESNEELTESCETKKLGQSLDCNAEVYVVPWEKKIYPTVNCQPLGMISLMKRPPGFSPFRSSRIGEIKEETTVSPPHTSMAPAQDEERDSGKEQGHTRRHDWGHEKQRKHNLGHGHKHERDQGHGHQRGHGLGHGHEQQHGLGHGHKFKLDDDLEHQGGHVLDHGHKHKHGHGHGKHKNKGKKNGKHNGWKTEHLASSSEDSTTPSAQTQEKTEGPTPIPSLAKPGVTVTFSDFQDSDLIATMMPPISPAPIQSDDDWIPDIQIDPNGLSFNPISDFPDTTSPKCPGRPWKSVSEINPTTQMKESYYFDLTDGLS

B1: Medaka EP-1 serine protease domain (wild-type) (protein)
chain: VVGGVNAEKGAWPWMVSLHWRGRHGCGASLIGRDWLLTAAHCVYGKNTHLQYWSAVLGLHAQSSMNSQEVQIRQVDRIIINKNYNRRTKEADIAMMHLQQPVNFTEWVLPVCLASEDQHFPAGRRCFIAGWGRDAEGGSLPDILQEAEVPLVDQDECQRLLPEYTFTSSMLCAGYPEGGVDSCQGDSGGPLMCLEDARWTLIGVTSFGVGCGRPERPGAYARVSAFTSWIAETRRSSFSDLD
B2: porcine EP serine protease domain (Ile800 to His1034) (protein)
chain: IVGGNDSREGAWPWVVALYYNGQLLCGASLVSRDWLVSAAHCVYGRNLEPSKWKAILGLHMTSNLTSPQIVTRLIDEIVINPHYNRRRKDSDIAMMHLEFKVNYTDYIQPICLPEENQVFPPGRICSIAGWGKVIYQGSPADILQEADVPLLSNEKCQQQMPEYNITENMMCAGYEEGGIDSCQGDSGGPLMCLENNRWLLAGVTSFGYQCALPNRPGVYARVPKFTEWIQSFLH

Tests used:
[1] = molecular target: T1, Boc-Glu(OBzl)-Ala-Arg-MCA
[2] = molecular target: D4K-cleavage site-containing control protein (Novagen)
[3] = molecular target: T2, Gly-Asp-Asp-Asp-Asp-Lys-β-naphthylamide
[4] = molecular target: Human plasma fibronectin, P02751
Sequence of Human plasma fibronectin, P02751 (P02751 other isoform, or with tags, fused parts or gaps): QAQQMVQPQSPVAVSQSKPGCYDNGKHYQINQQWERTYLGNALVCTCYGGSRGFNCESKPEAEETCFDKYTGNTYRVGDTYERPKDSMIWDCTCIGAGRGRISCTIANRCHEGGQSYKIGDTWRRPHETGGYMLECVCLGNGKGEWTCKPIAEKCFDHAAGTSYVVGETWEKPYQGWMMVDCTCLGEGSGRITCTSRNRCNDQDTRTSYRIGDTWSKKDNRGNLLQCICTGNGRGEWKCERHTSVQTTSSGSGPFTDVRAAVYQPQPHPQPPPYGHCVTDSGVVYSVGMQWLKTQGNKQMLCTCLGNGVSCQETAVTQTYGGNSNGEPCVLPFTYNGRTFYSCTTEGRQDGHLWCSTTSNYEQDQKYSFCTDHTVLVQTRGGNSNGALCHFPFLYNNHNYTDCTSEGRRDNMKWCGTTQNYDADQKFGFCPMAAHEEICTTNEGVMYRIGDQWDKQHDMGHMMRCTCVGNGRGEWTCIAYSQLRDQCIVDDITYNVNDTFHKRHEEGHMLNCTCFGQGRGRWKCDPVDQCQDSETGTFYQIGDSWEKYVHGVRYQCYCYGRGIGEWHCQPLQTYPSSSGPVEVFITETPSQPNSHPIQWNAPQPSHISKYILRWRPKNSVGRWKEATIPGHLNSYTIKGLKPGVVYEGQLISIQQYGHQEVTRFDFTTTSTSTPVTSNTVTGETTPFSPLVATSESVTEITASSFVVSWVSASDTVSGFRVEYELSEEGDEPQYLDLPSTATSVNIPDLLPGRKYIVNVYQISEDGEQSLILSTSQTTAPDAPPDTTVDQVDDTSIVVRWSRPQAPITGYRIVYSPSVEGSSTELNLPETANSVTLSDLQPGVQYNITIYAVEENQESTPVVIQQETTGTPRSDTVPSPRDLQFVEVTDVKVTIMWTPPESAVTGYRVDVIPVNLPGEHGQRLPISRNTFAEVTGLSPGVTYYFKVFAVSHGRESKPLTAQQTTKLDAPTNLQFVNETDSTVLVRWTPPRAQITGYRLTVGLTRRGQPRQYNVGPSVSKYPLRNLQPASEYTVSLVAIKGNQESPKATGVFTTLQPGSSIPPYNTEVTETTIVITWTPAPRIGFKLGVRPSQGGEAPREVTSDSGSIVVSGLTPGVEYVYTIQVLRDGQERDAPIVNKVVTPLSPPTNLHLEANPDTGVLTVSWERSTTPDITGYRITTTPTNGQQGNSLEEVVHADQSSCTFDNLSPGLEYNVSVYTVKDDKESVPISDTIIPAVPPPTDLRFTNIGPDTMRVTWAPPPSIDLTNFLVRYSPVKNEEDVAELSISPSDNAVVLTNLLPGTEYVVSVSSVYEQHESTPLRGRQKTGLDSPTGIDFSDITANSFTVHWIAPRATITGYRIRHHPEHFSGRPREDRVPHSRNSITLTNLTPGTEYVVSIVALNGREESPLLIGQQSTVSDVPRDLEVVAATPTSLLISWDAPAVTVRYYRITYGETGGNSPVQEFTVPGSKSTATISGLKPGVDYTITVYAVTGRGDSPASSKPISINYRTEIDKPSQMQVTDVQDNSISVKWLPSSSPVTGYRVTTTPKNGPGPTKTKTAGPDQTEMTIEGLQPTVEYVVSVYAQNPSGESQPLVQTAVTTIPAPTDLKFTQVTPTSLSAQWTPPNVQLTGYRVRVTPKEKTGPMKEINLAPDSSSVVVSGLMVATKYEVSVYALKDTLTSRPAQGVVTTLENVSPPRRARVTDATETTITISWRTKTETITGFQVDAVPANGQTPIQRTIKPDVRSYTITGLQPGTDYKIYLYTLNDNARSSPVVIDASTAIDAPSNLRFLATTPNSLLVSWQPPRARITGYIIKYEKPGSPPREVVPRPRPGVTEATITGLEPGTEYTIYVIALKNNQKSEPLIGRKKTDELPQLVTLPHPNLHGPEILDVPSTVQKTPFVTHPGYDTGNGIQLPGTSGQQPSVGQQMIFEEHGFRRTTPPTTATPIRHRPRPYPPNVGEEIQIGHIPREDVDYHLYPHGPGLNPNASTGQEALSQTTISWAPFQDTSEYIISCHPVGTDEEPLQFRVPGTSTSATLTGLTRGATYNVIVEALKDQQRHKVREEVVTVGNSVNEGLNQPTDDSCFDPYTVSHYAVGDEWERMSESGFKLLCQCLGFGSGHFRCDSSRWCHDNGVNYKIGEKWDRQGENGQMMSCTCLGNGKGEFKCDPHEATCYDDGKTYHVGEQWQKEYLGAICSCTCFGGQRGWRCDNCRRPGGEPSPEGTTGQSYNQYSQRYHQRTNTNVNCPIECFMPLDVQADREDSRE

Pro-Phe-Arg-MCA = molecular target: T3, Pro-Phe-Arg-MCA
Z-Phe-Arg-MCA = molecular target: T4, Z-Phe-Arg-MCA
[5] = molecular target: human single-chain tPA fusion protein with N-terminal His-tag/EP-cleavage site, P00750
Sequence of human single-chain tPA fusion protein with N-terminal His-tag/EP-cleavage site, P00750 (P00750 whole entry, looked up, the tested form may be a part): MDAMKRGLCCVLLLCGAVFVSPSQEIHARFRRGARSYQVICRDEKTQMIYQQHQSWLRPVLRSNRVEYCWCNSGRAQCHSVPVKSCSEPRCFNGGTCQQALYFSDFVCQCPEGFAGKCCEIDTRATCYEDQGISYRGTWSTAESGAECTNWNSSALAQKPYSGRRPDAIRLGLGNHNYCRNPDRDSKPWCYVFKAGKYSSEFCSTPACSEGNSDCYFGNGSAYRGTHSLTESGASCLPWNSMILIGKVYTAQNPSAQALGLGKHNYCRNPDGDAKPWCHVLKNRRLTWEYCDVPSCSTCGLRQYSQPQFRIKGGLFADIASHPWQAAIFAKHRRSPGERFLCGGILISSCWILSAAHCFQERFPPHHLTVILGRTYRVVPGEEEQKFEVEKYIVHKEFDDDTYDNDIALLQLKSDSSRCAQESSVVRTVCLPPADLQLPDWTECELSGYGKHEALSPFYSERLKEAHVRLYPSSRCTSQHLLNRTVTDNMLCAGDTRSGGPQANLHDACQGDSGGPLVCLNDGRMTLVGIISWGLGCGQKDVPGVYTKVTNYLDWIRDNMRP

[6] = molecular target: recombinant fusion protein of Medaka gelatinase A
[7] = molecular target: recombinant fusion protein of Medaka trypsinogen
[8] = molecular target: T5, recombinant fusion protein of human …
human fibrinogen, P02671 = molecular target: T6, human fibrinogen, P02671
[9] = molecular target: T7, human high-molecular-weight (HMW) …

| Protein | Km [1] | kcat [1] | kcat/Km (mM^-1 · min^-1) [1] | cleavage of the fusion protein (SDS-PAGE) [2] | Km [3] | kcat [3] | kcat/Km (mM^-1 · min^-1) [3] | proteolytic activity (SDS-PAGE) [4] | Km (Pro-Phe-Arg-MCA) | kcat (Pro-Phe-Arg-MCA) | kcat/Km (mM^-1 · min^-1) (Pro-Phe-Arg-MCA) | Km (Z-Phe-Arg-MCA) | kcat (Z-Phe-Arg-MCA) | kcat/Km (mM^-1 · min^-1) (Z-Phe-Arg-MCA) | proteolytic activity (gelatin zymography) (gelatin) | cleavage of the fusion protein (SDS-PAGE/Western blot) [5] | proteolytic activity (SDS-PAGE) (mouse laminin) | cleavage of the fusion protein (SDS-PAGE) [6] | cleavage of the fusion protein (SDS-PAGE) [8] | other results |
| --- | --- | --- | --- | --- | --- | --- | --- | --- | --- | --- | --- | --- | --- | --- | --- | --- | --- | --- | --- | --- |
| B1 | 200 µM | 0.112 s⁻¹ | 34 | the Medaka protease specifically cleaved the fusion protein to generate two polypeptides having expected molecular masses of 16- and 32-kDa | 700 µM | 15.7 s⁻¹ | 1300 | Little or no hydrolysis was observed with the fish enzyme for the proteins | 10000 µM | 2.33 s⁻¹ | 14 | 100 µM | 0.0483 s⁻¹ | 29 | Little or no hydrolysis was observed with the fish enzyme for the proteins | The protein samples treated with the Medaka wild-type or mutant EP proteases, but not with mammalian ones, showed two polypeptides (53- and 55-kDa) | Little or no hydrolysis was observed with the fish enzyme for the proteins | A 60-kDa fusion protein was converted by wild-type or mutant proteases to a 55-kDa protein | Digestion with Medaka wild-type and mutant EP proteases generated 31.5-kDa active hK8 by cleaving the D4K sequence | amidolytic activity [1]: much lower than those of the EP proteases of mammalian origin; cleavage rate [3]: cleaved GD4K-βNA at a rate comparable to those of the porcine and bovine enzymes; enzyme activity for GD4K-βNA [3]: EP-1 was approximately three times more active than EP-2; amidolytic activity (Pro-Phe-Arg-MCA): much lower than those of the EP proteases of mammalian origin; amidolytic activity (Z-Phe-Arg-MCA): much lower than those of the EP proteases of mammalian origin; conversion of trypsinogen to active trypsin [7]: The trypsinogen was converted to active trypsin by EP-1 faster than by EP-2 |
| B2 | 300 µM | 1.83 s⁻¹ | 370 | the mammalian enzymes not only produced the two expected polypeptides but also further degraded the products | 400 µM | 8.83 s⁻¹ | 1300 | these substrates were detectably hydrolyzed by the mammalian proteases | 3900 µM | 5 s⁻¹ | 77 | 200 µM | 0.917 s⁻¹ | 280 | these substrates were detectably hydrolyzed by the mammalian proteases | but not with mammalian ones, showed two polypeptides (53- and 55-kDa) | these substrates were detectably hydrolyzed by the mammalian proteases | the fusion protein was extensively digested by mammalian EP serine proteases | the porcine protease extensively degraded the substrate | nonspecific proteolytic activity (SDS-PAGE) (human fibrinogen, P02671): both of which were degraded noticeably by mammalian EP proteases; nonspecific proteolytic activity (SDS-PAGE) [9]: both of which were degraded noticeably by mammalian EP proteases |

From patent publication US20080213836
